Source: paper PMC7691336
Where “and” joins values, the source holds several entries; their conditions need not be identical. Identical values can stand only once.

Experiments:
[1] = target: cardiac ryanodine receptor (RyR2), wild type, mouse heart (mouse (endogenous in cardiac homogenates)) (UniProt E9Q401); experiment: cross-linking; CaM-SANPAH at rising concentrations (to 1024 nM; also 3000) mixed with mouse cardiac homogenates (1 mg/mL) in 150 mmol/L KCl, 10 umol/L CaCl2, 20 mmol/L MES pH 6.8; 10 min binding, UV cross-linking, anti-CaM blot of the 550 kDa band; binding as ratio to the maximum; one Kd for each heart; hearts 2 weeks after transverse aortic constriction (TAC 2W)
[2] = target: cardiac ryanodine receptor (RyR2) V3599K, knock-in mouse heart (mouse (endogenous in cardiac homogenates)) (UniProt E9Q401); experiment: as above
[3] = target: cardiac ryanodine receptor (RyR2), wild type, mouse heart (mouse (endogenous in cardiac homogenates)) (UniProt E9Q401); experiment: cross-linking; CaM-SANPAH at rising concentrations (to 1024 nM; also 3000) mixed with mouse cardiac homogenates (1 mg/mL) in 150 mmol/L KCl, 10 umol/L CaCl2, 20 mmol/L MES pH 6.8; 10 min binding, UV cross-linking, anti-CaM blot of the 550 kDa band; binding as ratio to the maximum; one Kd for each heart; hearts of sham-operated mice
[4] = target: cardiac ryanodine receptor (RyR2) V3599K, knock-in mouse heart (mouse (endogenous in cardiac homogenates)) (UniProt E9Q401); experiment: as above

- Kd [1]: 118 nM and 151 nM and 139 nM
- Kd [2]: 55.9 nM and 44.2 nM and 82.9 nM
- Kd [3]: 61.4 nM and 66.9 nM and 54.7 nM (2×)
- Kd [4]: 47.4 nM and 51.6 nM (2×) and 74.2 nM
Substance: CaM-SANPAH conjugate (recombinant calmodulin) (from UniProt P0DP23 1-149) (natural protein)
